Data published in PMC3781060.

What was measured:
[1] = target: low-density lipoprotein (LDL) receptor-related protein-1 (LRP1) (rat (endogenous in PC12 cells and primary DRG neurons)) (UniProt G3V928)
[2] = target: low-density lipoprotein (LDL) receptor-related protein-1 (LRP1) (rat (endogenous in PC12 cells and primary DRG neurons)) (UniProt G3V928); remark: listed apart in the source

Chain of UniProt G3V928 (G3V928 20-4545): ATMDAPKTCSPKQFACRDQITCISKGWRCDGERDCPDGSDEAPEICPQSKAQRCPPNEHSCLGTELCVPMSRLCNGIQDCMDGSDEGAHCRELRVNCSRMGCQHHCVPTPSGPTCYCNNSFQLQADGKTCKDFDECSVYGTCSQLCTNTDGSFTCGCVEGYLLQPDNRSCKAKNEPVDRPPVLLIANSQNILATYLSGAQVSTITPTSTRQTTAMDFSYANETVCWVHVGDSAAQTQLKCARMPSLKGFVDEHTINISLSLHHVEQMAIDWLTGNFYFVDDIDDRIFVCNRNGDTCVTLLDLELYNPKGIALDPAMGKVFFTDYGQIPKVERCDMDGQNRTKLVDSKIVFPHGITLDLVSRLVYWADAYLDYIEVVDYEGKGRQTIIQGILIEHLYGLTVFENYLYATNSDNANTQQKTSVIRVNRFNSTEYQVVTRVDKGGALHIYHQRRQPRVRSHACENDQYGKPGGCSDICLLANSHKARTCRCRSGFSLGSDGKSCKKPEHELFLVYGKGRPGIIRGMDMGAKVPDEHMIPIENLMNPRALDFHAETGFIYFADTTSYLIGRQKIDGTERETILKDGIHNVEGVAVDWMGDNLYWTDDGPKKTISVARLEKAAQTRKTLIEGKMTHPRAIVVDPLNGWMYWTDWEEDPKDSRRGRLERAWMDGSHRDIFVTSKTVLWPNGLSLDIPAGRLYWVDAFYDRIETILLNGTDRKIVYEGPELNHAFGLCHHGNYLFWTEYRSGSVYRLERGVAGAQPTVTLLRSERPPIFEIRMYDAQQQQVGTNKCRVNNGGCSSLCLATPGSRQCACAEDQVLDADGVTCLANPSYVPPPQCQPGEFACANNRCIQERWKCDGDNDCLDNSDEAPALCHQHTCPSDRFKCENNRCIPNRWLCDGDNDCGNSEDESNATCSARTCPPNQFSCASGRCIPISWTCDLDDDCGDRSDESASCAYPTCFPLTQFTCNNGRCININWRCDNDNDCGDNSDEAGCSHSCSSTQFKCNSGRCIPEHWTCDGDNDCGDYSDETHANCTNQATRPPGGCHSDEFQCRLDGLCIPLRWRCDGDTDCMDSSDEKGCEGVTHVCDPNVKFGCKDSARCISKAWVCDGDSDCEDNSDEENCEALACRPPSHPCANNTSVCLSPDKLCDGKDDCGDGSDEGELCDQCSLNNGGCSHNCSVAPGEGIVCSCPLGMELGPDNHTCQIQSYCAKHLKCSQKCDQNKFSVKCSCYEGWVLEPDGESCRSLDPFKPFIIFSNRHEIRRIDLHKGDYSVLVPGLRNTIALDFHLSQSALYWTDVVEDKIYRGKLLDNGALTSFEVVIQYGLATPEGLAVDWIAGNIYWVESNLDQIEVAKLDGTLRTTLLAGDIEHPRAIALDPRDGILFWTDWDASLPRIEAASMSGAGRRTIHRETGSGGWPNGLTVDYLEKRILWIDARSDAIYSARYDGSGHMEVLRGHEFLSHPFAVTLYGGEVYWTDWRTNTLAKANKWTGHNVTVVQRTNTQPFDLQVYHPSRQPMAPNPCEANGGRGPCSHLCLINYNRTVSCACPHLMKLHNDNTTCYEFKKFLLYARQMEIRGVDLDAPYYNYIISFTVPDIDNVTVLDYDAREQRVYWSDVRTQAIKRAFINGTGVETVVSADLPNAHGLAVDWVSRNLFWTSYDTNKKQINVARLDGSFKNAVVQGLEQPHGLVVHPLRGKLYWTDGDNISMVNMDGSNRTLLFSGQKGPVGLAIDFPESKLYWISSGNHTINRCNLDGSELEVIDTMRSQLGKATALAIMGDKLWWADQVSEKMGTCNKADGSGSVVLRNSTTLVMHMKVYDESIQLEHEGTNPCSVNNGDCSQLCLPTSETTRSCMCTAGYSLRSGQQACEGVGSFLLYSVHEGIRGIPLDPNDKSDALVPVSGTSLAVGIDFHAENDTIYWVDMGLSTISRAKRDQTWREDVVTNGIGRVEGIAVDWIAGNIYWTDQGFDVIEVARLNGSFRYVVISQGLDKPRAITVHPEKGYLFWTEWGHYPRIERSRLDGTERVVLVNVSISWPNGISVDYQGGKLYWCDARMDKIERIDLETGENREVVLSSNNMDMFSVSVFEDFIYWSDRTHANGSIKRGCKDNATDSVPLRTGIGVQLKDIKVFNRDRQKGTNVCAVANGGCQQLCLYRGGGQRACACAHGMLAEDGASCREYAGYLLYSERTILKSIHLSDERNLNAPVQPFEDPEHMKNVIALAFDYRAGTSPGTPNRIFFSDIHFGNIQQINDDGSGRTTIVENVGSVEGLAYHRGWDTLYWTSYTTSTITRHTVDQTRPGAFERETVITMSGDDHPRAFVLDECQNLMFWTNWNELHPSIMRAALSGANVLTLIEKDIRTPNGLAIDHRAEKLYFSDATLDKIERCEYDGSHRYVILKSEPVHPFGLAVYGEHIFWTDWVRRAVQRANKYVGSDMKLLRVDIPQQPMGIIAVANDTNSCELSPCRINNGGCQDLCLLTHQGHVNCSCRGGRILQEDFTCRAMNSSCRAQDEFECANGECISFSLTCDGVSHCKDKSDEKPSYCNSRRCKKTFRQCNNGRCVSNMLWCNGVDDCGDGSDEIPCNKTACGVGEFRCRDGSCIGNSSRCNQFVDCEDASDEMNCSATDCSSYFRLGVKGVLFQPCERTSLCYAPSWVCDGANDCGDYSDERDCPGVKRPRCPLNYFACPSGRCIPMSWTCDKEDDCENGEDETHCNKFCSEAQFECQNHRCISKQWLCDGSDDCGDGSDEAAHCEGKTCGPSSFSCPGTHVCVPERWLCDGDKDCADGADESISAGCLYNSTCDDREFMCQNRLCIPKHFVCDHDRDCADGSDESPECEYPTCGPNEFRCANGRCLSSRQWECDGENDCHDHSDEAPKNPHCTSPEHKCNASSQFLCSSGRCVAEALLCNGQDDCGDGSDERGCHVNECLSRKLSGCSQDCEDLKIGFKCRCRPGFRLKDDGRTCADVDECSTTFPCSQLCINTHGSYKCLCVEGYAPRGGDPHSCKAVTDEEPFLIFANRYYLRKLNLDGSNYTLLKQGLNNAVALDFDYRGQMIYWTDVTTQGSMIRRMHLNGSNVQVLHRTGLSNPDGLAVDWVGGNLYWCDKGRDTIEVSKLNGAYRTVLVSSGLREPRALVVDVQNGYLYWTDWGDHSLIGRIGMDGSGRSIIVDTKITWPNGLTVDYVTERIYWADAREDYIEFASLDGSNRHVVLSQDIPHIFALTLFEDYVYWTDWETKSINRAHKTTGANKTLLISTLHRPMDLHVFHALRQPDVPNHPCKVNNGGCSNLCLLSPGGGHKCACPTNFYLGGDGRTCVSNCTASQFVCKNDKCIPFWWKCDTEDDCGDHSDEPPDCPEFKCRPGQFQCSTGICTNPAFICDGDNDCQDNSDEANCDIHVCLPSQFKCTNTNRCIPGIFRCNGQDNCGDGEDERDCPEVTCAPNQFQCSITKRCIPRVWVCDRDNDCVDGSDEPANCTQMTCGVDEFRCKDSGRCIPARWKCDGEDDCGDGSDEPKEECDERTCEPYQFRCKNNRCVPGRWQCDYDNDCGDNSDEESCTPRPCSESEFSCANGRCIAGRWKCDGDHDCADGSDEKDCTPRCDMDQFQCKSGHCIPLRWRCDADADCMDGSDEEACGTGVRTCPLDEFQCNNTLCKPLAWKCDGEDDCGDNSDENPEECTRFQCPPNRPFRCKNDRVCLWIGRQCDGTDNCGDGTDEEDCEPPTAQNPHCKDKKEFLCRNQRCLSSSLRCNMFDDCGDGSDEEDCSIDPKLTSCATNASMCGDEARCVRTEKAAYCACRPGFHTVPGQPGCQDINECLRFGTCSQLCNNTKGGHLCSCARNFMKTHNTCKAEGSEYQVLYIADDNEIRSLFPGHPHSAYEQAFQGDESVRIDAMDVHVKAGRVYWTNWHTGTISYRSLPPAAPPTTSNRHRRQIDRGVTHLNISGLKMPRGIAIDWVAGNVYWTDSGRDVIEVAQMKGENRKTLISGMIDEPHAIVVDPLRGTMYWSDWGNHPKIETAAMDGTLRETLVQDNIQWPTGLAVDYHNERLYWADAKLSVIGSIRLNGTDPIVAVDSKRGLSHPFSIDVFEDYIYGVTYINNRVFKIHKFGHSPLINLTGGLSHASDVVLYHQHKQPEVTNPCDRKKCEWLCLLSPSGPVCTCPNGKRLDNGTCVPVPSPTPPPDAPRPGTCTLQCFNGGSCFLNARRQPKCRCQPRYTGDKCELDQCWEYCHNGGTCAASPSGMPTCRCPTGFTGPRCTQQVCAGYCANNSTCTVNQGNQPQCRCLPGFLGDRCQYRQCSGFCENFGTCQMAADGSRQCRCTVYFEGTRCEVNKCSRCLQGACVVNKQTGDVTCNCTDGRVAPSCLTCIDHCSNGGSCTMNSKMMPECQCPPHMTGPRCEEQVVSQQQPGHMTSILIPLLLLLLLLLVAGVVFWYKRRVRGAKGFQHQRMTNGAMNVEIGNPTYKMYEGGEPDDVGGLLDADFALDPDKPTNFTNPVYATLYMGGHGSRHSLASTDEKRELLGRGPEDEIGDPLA

| Molecule | neurite outgrowth of primary embryonic sensory neurons cultured for 2 weeks with MMP-9-PEX (100 nM), quantified as GAP-43 mRNA compared to GST [1] [fold] | neurite outgrowth of primary embryonic sensory neurons cultured for 2 weeks with RBD, compared to GST controls [2] [fold] |
| --- | --- | --- |
| GST fusion protein of the hemopexin domain of matrix metalloprotease-9 (MMP-9-PEX) (domain or fragment) | 15 | – |
| GST fusion protein of the Receptor Binding Domain of α2-macroglobulin (RBD) (domain or fragment) GAATFTRTGKAAQVTIQSSGTFSSKFQVDNNNRLLLQQVSLPELPGEYSMKVTGEGCVYLQTSLKYNILPEKEEFPFALGVQTLPQTCDEPKAHTSFQISLSVSYTGSRSASNMAIVDVKMVSGFIPLKPTVKMLERSNHVSRTEVSSNHVLIYLDKVSNQTLSLFFTVLQDVPVRDLKPAIVKVYDYYETDEFAIAEYNAPCSKDLGNA | – | > 40 |
